Assay [1] addresses human MT1-MMP hemopexin domain (residues Cys319-Gly511, N-terminally His6-tagged soluble protein) (human) (UniProt P50281). In words: FP competition on human MT1-MMP hemopexin domain, tracer 17-69-07-N040 (footnote f).
Assay [2] shares this target. The experiment in a line: FP competition on human MT1-MMP hemopexin domain (footnote a: tracer 17-69-07-N040; footnote e: 17-69-07-N004).
The target in assay [3] is dog MT1-MMP hemopexin domain (dog). In words: FP competition, dog MT1-MMP hemopexin domain.
For assay [4], the target named is human MT1-MMP hemopexin domain (residues Cys319-Gly511, N-terminally His6-tagged soluble protein) (human) (UniProt P50281). The experiment in a line: FP competition, Human/cyno MT1-MMP hemopexin domain.
Assay [5] shares this target. In words: FP competition on human MT1-MMP hemopexin domain (per paragraph 249; tracer not given).
For assay [6] the target is unchanged. The experiment in a line: fluorescence polarisation with the fluoresceinated peptide. For orientation: In fluorescence polarisation assays a small probe gives low polarisation when free and higher when bound to something large.

Numbered stars: 1 amine (or outer) side, 2 acyl side, 3 side chain; on linkers, the order of the positions; unused ones are H or OH. Bridge positions count the residues as written; N and C are the ends. Square brackets hold non-standard residues; d marks the D form. Ends that are not written are not given here. * marks the point of attachment. DM4 = maytansinoid, two hindering methyls on maytansine side, COc1cc2cc(c1Cl)N(C)C(=O)C[C@H](OC(=O)[C@H](C)N(C)C(=O)CCC(C)(C)S*)[C@]1(C)O[C@H]1[C@H](C)[C@@H]1C[C@@](O)(NC(=O)O1)[C@H](OC)/C=C/C=C(\C)C2; DM3 = maytansinoid, one hindering methyl on maytansine side, COc1cc2cc(c1Cl)N(C)C(=O)C[C@H](OC(=O)[C@H](C)N(C)C(=O)CCC(C)S*)[C@]1(C)O[C@H]1[C@H](C)[C@@H]1C[C@@](O)(NC(=O)O1)[C@H](OC)/C=C/C=C(\C)C2; disulfide linker, one methyl on bicycle side = not defined here; fluorescein = fluorescein label on the Lys side chain; unhindered disulfide linker = not defined here; 1Nal = N[C@@H](Cc1cccc2ccccc12)C(=O)O; TBMB = c1c(C[*:1])cc(C[*:3])cc1C[*:2]; disulfide linker = not defined here; Tle = CC(C)(C)[C@H](N)C(=O)O; DM1 = maytansinoid; βAla = NCCC(=O)O; Sar = CNCC(=O)O

Drawing on patent publication US12318454, this text covers Kd for seven molecules.

B1: BT17BDC-20 (peptide)
peptide: {DM3-disulfide linker, one methyl on bicycle side}-[βAla][Sar][Sar][Sar][Sar][Sar][Sar][Sar][Sar][Sar][Sar]AC[dA]NE[1Nal][dA]CEDFYD[Tle]C
modifications: linker 13-19-26 via TBMB; reading uncertain; also: exact linker structure not given here
As a reminder, the Kd is the constant that tells how readily two partners part at equilibrium. Lower therefore signals a tighter complex. B1 showed a Kd in assay [1] of 2.95 nM. In other words, the single-digit nanomolar range.

B2: BT17BDC-18 (peptide)
peptide: {DM1-disulfide linker, one methyl on bicycle side}-[βAla][Sar][Sar][Sar][Sar][Sar][Sar][Sar][Sar][Sar][Sar]AC[dA]NE[1Nal][dA]CEDFYD[Tle]C
modifications: linker 13-19-26 via TBMB; reading uncertain; also: exact linker structure not given here
B2: in assay [2], the dissociation constant (Kd) was 0.99 nM.

B3: BT17BDC-19 (peptide)
peptide: {DM4-disulfide linker}-[βAla][Sar][Sar][Sar][Sar][Sar][Sar][Sar][Sar][Sar][Sar]AC[dA]NE[1Nal][dA]CEDFYD[Tle]C
modifications: linker 13-19-26 via TBMB; reading uncertain; also: exact linker structure not given here
Regarding B3, the dissociation constant (Kd) in assay [2] amounted to 0.5 nM.
Consider H-G[Sar][Sar][Sar][Sar][Sar][Sar][Sar][Sar][Sar][Sar]ACYNEFGCEDFYDIC (linker 13-19-26 via TBMB; not fully specified (C-terminus)) [17-69-07-N219], for which the dissociation constant (Kd) in assay [3] is 0.9 nM; in assay [4], 0.82 nM; in assay [5], 0.82 nM; in assay [2] it was 0.82 nM.
Molecule Ac-G[Sar][Sar][Sar][Sar][Sar][Sar][Sar][Sar][Sar][Sar]ACYNEFGCEDFYDIC (linker 13-19-26 via TBMB; not fully specified (C-terminus)) [17-69-07-N225] displayed a Kd in assay [5] of 0.95 nM.

B4: BT17BDC-17 (peptide)
peptide: {DM1-unhindered disulfide linker}-[βAla][Sar][Sar][Sar][Sar][Sar][Sar][Sar][Sar][Sar][Sar]AC[dA]NE[1Nal][dA]CEDFYD[Tle]C
modifications: linker 13-19-26 via TBMB; reading uncertain; also: exact linker structure not given here
With B4, the Kd in assay [2] was 0.7 nM.

B5: 17-69-07-N258 (peptide)
peptide: fluorescein-[βAla][Sar][Sar][Sar][Sar][Sar][Sar][Sar][Sar][Sar][Sar]AC[dA]NE[1Nal][dA]CEDFYD[Tle]C
modifications: linker 13-19-26 via TBMB; not fully specified (C-terminus); printed as Fluorescein-(bAla)-Sar10-A-(17-69-07) D-Ala1 1Nal4 D-Ala5 tBuGlyl1
In turn, B5 came in with a Kd in assay [6] of 2.2 nM. In other words, the single-digit nanomolar range.
